Here are results for 41 sequences from the nanobody polyreactivity screen of Harvey et al. (2022).

The nature of this series: yeast display, Sf9 membrane polyspecificity reagent, FACS + sequencing; frameworks hold sequencing errors. The method, boiled down: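 Using colony PCR, genes from sorted yeast display clones were amplified, then sequenced on MiSeq at 2 × 250 and filtered by CDR length. The clones had been stained with 10% biotinylated, detergent-solubilized Sf9 membrane reagent for 1 hour at 4 °C and sorted by FACS into low and high (top ~1%) gates on anti-HA and streptavidin fluorescence. Polyreactivity labels come from the gate of origin.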
As to “QVQLVESGGGLVQAGGSLRISCAASGRIFHGNARGWYRPAPGKERELVAAITSGGRTFYADSVKGRFTISRDNAKNTVYLQLHSLKPEDTAVYYCNAPSIAGYAEYNSHDYWGHGTQVTVSS”, the “polyreactivity (PSR sort gate)” value was “high polyreactivity”.
As for “QVQLVESGGGLVQAGGSLRISCAASGRIFRGNALGWYRQAPGTERELVAAITRSGGSTYYADSVKGRFTISRDNAKNTVYLQMNSLKPEDTAVYYCAAGYPYYSYLYDYWGQGTQVSVSS”, the entry is “high polyreactivity”; as for “QVQLVESGGGLVQAGGSLRISCAASGRIFYENTMGWYRQAPGKETELVAVITSTGNTNYADSVKGRFTISRDNAKNTVYLQMNSLKPEVTAVYYCAADSPPGGYVFPERPYDYWGQGTQVTVSS”, “low polyreactivity”; as for “QVQLVESGGGLVQAGGSLRISCAASGRIFYYNVMGWYRQAPGKEWELVASISYSSTRTYYADSVKGRFTISRDNGMNTFYLQMNSLKPEDTAVYYCAVDGYSYYSMDYWGQGTQVTVSS”, “low polyreactivity”.
With “QVQLVESGGGLVQAGGSLRISCAASGRISVVNAMGWYRQAPGKEREMVAAIRRASTNYADSVKGRFTISRDNAKNTVYLQMNSLKPEDTAVYFCAARVYGINIFEYWGQGTQVTVSS”, the “polyreactivity (PSR sort gate)” value was “high polyreactivity”.
As for “QVQLVESGGGLVQAGGSLRISCAASGRNLSVYAMGWYRPAPGKERELVATITGRGGGTYYADSVKGRFTISRDNAKNTVYLQMNRLKPEDTAVYYCAADLVDFWYQITTHYDYWGQGTEVTVSS”, the entry is “low polyreactivity”; as for “QVQLVESGGGLVQAGGSLRISCAASGRTFADYAMGWSRQEPGKERELVAAISWSGGSTYYADSVKGRFTISCDNAKNTVYLQMNSLKPEDTAVYYSNAVRQRGYDYWGQGTQVTVSS”, “low polyreactivity”; as for “QVQLVESGGGLVQAGGSLRISCAASGRTFDRYAMGWYREAPGKERELVAVIRFIGGSTYYADSVKGRFTISRDNAKKTVYLQRNSLIPEDTAVYYCAAEVYDSYFFGYEYWGQGTQVTVSS”, “low polyreactivity”.
To “QVQLVESGGGLVQAGGSLRISCAASGRTFGANAMGWYRQAPGKERELVAGITSSGGSTSYADSVKGRFTISRDNAKNTVYLQMNSLKPEDTAVYYCAKDVYQHIFDVILGGYDSWGQGTQVTVSS” belongs “low polyreactivity”; to “QVQLVESGGGLVQAGGSLRISCAASGRTFGINAMGWYRQAPGKERELVAAISSSGSTYYADSVKGRFTISRDNAKNTVYLQMNSLKPEDTAVYYCAAVAKQWGNTYYYWGQGTQVTVSS”, “high polyreactivity”; to “QVQLVESGGGLVQAGGSLRISCAASGRTFLSYGMGWYRQAPGKERELVATIDDSGSTYYADSVKGRFTISRDNAKNTVYLQMNSLKPEDTAVYYCATDRQVFYWDFWYIEYDYGGQGTQVTVSS”, “high polyreactivity”.
Turning to “QVQLVESGGGLVQAGGSLRISCAASGRTFPCKAMGWYRQAPGKERELVATITWSSGRTHYADSVKGRFTISRDNAKNTVYLQMNSLKPEDSAVYYCAAKWIVAVVGFYYWGQGTQVTVSS”, the “polyreactivity (PSR sort gate)” value was “low polyreactivity”.
To “QVQLVESGGGLVQAGGSLRISCAASGRTFSSYAMGWYRQAPGKERELVARISSSGGRTSYADSVKGRFTISRDNAKNTVYLQMNSLKPEDTAVYYCATEWSDRNDYWGQGTQVTVSS” belongs “high polyreactivity”; to “QVQLVESGGGLVQAGGSLRISCAASGSIFAKNAMGWYRQAPGKERELVAGIDFSGGSTYYADSVKGRFTISRDNAKNTVYLQMNSLKPEDTAVYYCAADWAYKYELDYWGQGTQVTVSS”, “low polyreactivity”.
As for “QVQLVESGGGLVQAGGSLRISCAASGSIFPHYAMGWYRQSPAKERELVAAISYSGGRTYYADSVKGRFTISRDNAKNTFYLQMNSLKPEDTAVYYCAKTERVLYHGDYWGQGTQVTVSS”, the entry is “low polyreactivity”; as for “QVQLVESGGGLVQAGGSLRISCAASGSIFQNYAMGGYRQAPGKERELVAAINDDSTYYADSVKGRFTISRDNAKNPVDLQMNSLKPEDTAVYYGNKEFLRRQRVTFWHLGGYWGQGTQVTVSS”, “low polyreactivity”; as for “QVQLVESGGGLVQAGGSLRISCAASGSIFRINAMGWYRQAHGKEMELVAAITASGDRTYYADSVKGRFTISRDNAKNTVYLQMNSLKPEDTAVFYCAVDSYYPASSLVAFPYAPRYDYWGQGTQVTVSS”, “low polyreactivity”.
With “QVQLVESGGGLVQAGGSLRISCAASGSIFRRYAMGWYSQAPGKERDLVATISSVTTTNYADSVKGRFTISRDNANNTVYLQMNSLKPEDTSVFYCAAVVYGQRRGPGQRKSYWGQGTQVTVSS”, the “polyreactivity (PSR sort gate)” value is on record as “high polyreactivity”.
As for “QVQLVESGGGLVQAGGSLRISCAASGSIFRYYYMGWYSQAPGKERELVAAITYSGGGTYYADSVKGRFTISRDNAKNTVYLQMNSLKAEDTAVYYCAVRRVGSIYIDRYIYVVSDYFYWGNGTQVTVSS”, the entry is “low polyreactivity”; as for “QVQLVESGGGLVQAGGSLRISCAASGSIFSDNGMGWYRQAPGKERELVAAITIGGSTNYADSVKGRFTISRDNAKNTVYLLMKRLNPEDTAVYYCNTDFFYYGYNFPYFDYDYWGQGTQVTVSA”, “low polyreactivity”.
As for “QVQLVESGGGLVQAGGSLRISCAASGSIFTANSMGWYRQAPGKERELVAAITWSGGSTYYADSVKGRFTISRDNAKNTVYLQMNSLKPEDPAVYYCAALPLYLGPKRLGYWGQGTQVTVSS”, the “polyreactivity (PSR sort gate)” value is “high polyreactivity”.
To “QVQLVESGGGLVQAGGSLRISCAASGSIFVHYSMGWYRQAPGKEREFVAAISRGGGTTYYADSVKGRFTISRDNAKNTVYLQMNSLKPEDTAVYYCSARPSTDEGHRQSGLDYWGQGTQVTVSS” belongs “high polyreactivity”; to “QVQLVESGGGLVQAGGSLRISCAASGSIFYLYTIGWYRQAPGKERELVAAITSGGSTNYADSVKGRFTISRDNAKNTVYLQMNSLKPEDTAVYYCAAEYFDWWVTYDYWGQGTQVTVSS”, “high polyreactivity”; to “QVQLVESGGGLVQAGGSLRISCAASGSIFYPYAMGWYRQAPGKERELVAGITYRAGSTYYADSVKGRFTISRDNAKNTVYLQMNSLKPEDTAVYYCAASESYAFDWGQGTQVTVSS”, “high polyreactivity”.
As for “QVQLVESGGGLVQAGGSLRISCAASGSIFYRYAMGWYRQAPGKERELVAAIRTRGGTYYADSVKGRFTISRDNAKNTVYLQMNSLKPEDTAVYYCNAVVPGWTAVDYDYWGQGTQVTVSS”, the “polyreactivity (PSR sort gate)” value is “high polyreactivity”.
To “QVQLVESGGGLVQAGGSLRISCAASGSNFSIYAMGWYRQAPGKERELVATNYADSVKGRFTISRDNAKNTVYLQMNSLKPEDTAVDYCAADDLSYFWGDVPGDYWGQGTQVTVSS” belongs “low polyreactivity”.
As for “QVQLVESGGGLVQAGGSLRISCAASGSTFDNYAMGSYRHAPGKERELVAVITQSGGITFYADSVKGRFTISRDNSKNTVYLQMNSLKPEDSAVYYCNVELDRSWYYYWGQGTQVTVSS”, the entry is “low polyreactivity”; as for “QVQLVESGGGLVQAGGSLRISCAASGSTFDYNAMGWDRQAPGKERELVAVISQSGTRTYYADSVKGRFTISRDNAKNTVYLQMNSLKPEDTAVYYCAARSPYSYRYDYWGQGTQVTVSS”, “high polyreactivity”; as for “QVQLVESGGGLVQAGGSLRISCAASGSTFGDYTMGWYRQAHGKERELVAAITLTGGSTFYADSVKGRFTISRDNAKNTVYLQMNSLKPVDTAVYYCNTDVIRWVGGTWHRYYYWGQGTQVTVSS”, “low polyreactivity”.
To “QVQLVESGGGLVQAGGSLRISCAASGSTFGSYTMGWYRQAPGKERELVAAIRGGGSTYYADSVKGRFTISRDNAKNTVYLQMNSLKPEDTAVYYCAALSPRRYNPRYGFDYCGQGTQVTVSS” belongs “high polyreactivity”; to “QVQLVESGGGLVQAGGSLRISCAASGSTFGYNDMGWYRQAPGKERELVAAIDTGVSTNYADSVKGRFTISRDNAKNTVYLQMNSLKPEDTAVYYCAKSGSAYWHSGWSVGFDYWGQGTQVTVSS”, “low polyreactivity”; to “QVQLVESGGGLVQAGGSLRISCAASGSTFGYNGMGWYRQAPGKERELVAAISGGARTYADSVKGRFTISRDNAKNTVYLLMNSLKPEDTAVYYCAADSPVSVTADDVFWGQGTQVTVSS”, “low polyreactivity”.
For “QVQLVESGGGLVQAGGSLRISCAASGSTFQGNAMGWSRHAPGKERELVAAISRSGGSTYADSVKGRFTISRDNAKNTVYLQMNSLKPEDTAVYYCSADAPFDRPYNYWGQGTQVTVSS”, the “polyreactivity (PSR sort gate)” value is recorded as “low polyreactivity”.
To “QVQLVESGGGLVQAGGSLRISCAASGSTFRWYAMGWYRQAPGKEREFVAAITWSGGRTYYADSVKGRFTISRDNAKNTVYLQMNSLKPEDTAVYYGNADDYGDSFNYWGQGTQVTVSS” belongs “high polyreactivity”; to “QVQLVESGGGLVQAGGSLRISCAASGSTFSLNAMGWYRQAPGKERELVAAISSRGTSTYYADSVKGRFTISRDNAKNTVYLQMNSLKPVDTAVYYCAAGKPKIPDDDYWGQGTQVTVSS”, “high polyreactivity”; to “QVQLVESGGGLVQAGGSLRISCAASGSTFTINVMGWYTQAPGKERELVAAINGGGRTNYADSVKGRFTISRDNAKNTVYLQMNSLIPEDSAVYYCAADGLSIVRQMDYWGLGTQVTVSS”, “low polyreactivity”.
To “QVQLVESGGGLVQAGGSLRISCAASGSTFWYYSMGWYRQAPGKERELVAAITRGGNTNYADSVKGRFTISRDNAKNTVYLQMNSLKPEDTAVYYCNADYKLADYREYNVYSFDYWGQGTQVTVSS” belongs “low polyreactivity”.
Regarding “QVQLVESGGGLVQAGGSLRISCAASGSTSTGMTWDGIDRRLGRKELVAGIRSAGSTNYADSVKGRFTISRDNAKNTVYLQMNSLKPEDTAGYYCAKDYRWVWRKYGYWGQGTQVTLSS”, the “polyreactivity (PSR sort gate)” value is reported as “low polyreactivity”.
In the case of “QVQLVESGGGLVQAGGSLRISCAASGSTYYNAMGWYRQAPGKERELVAAFRFRSGSTYYADSVKGRFTISRDNAKNTVYLQMNSLKPEDTAVYYCAADYKRSWRYAYNYWGQGTQVTVSS”, the “polyreactivity (PSR sort gate)” value is “high polyreactivity”.
To “QVQLVESGGGLVQAGGSLRISCAASGSTYYTNTMGWYRQAPGKERELVADINGSGGSTYYADSVKGRITISRDNAKNTVYLQMNSLKPEDTAVYYCAAGSLQVAIRYDYWGQGTQVTVSS” belongs “low polyreactivity”.
To “QVQLVESGGGLVQAGGSLRISCAASGYMFPWYTMGWYRQAPGKERELVAAITSGSSTYYADSVKGRFTISRDNAKNTVYLQMNSLKPEDTAVYYCNAYDDAYRLYRLRGRDYWGQGTQVTVSS” belongs “low polyreactivity”.
